Measurements: patent publication US8143228B2, “Agents capable of downregulating an MSF-A dependent HIF-1α and use thereof in cancer treatment” (Medical Research Fund of Tel Aviv Sourasky Medical Center, priority 2004, dated 2012)

What was measured:
HIF-1α protein = molecular target: T1, HIF-1α protein (Homo sapiens, UniProt Q16665); experiment: Co-immunoprecipitation / immunoblotting with HIF-1α in transfected HEK 293 cells; assay type: binding; conditions: transient transfection
T1 construct: expressed in transfected cells; host or cells: HEK 293
Method: FIGS. 9a-c are Western blot analyses of FLAG (MSF-A; FIGS. 9a and b) and HIF-1α (FIG. 9c) depicting the interaction between HIF-1α and the WT or deleted forms of MSF-A. HEK 293 cells were transiently co-transfected with expression vector encoding Flag-MSF-A (WT; p3xFlag-MSF-A), Flag-ΔG (AG; p3xFlag-ΔG-MSF-A), Flag-ΔN (ΔN; p3xFlag-ΔN-MSF-A) or empty vector (EV; p3xFlag-cmv-25). After 48 hours, the cells were lysed, subjected for immunoprecipitation (IP) using HIF-1α antibody and then immunoblotted (IB) with HIF-1α or Flag antibodies. FIG. 9a—whole cell extracts (WCE) subjected to IB with the Flag antibody (MSF-A); FIG. 9b—IP prepared by the HIF-1α antibody were subjected to IB with the Flag antibody (MSF-A); FIG. 9c—IP prepared by the HIF-1α antibody were subjected to IB with the HIF-1α antibody.
Immunoblotting—Proteins (30-60 μg/lane) from WCEs were resolved by 7.5% SDS-PAGE, electro-blotted to nitrocellulose membranes and incubated with the indicated primary antibodies, followed by horseradish peroxidase-conjugated secondary antiserum (Amersham Biosciences, Piscataway, N.J.). Immunoreactivity was visualized by Amersham enhanced chemiluminescence reagent (Amersham Biosciences, Piscataway, N.J.). For sequential blotting with additional antibodies, the membranes were stripped from the first primary antibody using a restore Western blot stripping buffer (Pierce, Rockford, Ill.) and were re-probed using the second primary antibody as indicated.
Immunoprecipitation—Cells were washed twice with ice-cold PBS, lysed in 20 mM Na-HEPES, pH 7.5, 0.5% Nonidet P-40, 0.1M NaCl, 2 mM EDTA, 10% Glycerol and 2 mM DTT supplemented with protease and phosphatase inhibitors, and were subjected to immunoprecipitation using anti-HIF-1α antibody and protein G-agarose beads (Pierce, Ill.) according to the manufacturer's instructions.
To confirm the interaction between the HIF-1α and the MSF-A proteins, HEK 293 cells were transiently co-transfected with the p3xFlag-MSF-A and the pcDNA3.1-HIF-1α vectors, and were grown for 24 hours under normoxic conditions (i.e., conditions of 20% oxygen), following which whole cell extracts (WCE) were subjected to co-immunoprecipitation (IP) using anti-FLAG or anti-HIF-1α antibodies. Following IP, the proteins were subjected to SDS-PAGE and immunoblotting (IB) using the counterpart antibody. As is shown in FIGS. 3a-d, following transfection with both expression vectors (i.e., pcDNA3.1-HIF-1α and p3xFlag-MSF-A) immunoprecipitates generated using either the anti-HIF-1α antibody or the anti-Flag antibody included the reciprocal proteins, i.e., the Flag-MSF-A or HIF-1α proteins, respectively.

[1] = test system: HIF-1 transcriptional activity; experiment: HRE-dependent luciferase reporter gene assay in PC-3 cells; assay type: cell-based; conditions: pooled PC-3-MSF-A vs PC-3-Neo cells
Method: Reporter gene assay and luminescence measurements—HRE-dependent luciferase activity was performed using the pBI-GL construct (pBI-GL V6L) containing six tandem copies of the VEGF hypoxia response element as previously described (Mabjeesh et al., 2002; Post and Van Meir, 2001). Cells were grown in 6-well plates and then transiently transfected in triplicate with a total of 1 μg DNA including 0.1 μg of the reporter plasmid, pBI-GL V6L. Duplicate sets of transfected cell-culture plates were then separated and incubated for 16 hours under either normoxic or hypoxic conditions. Luciferase enzymatic activity was measured using the commercial kit TROPIX (Bedford, Mass.) in the Galaxy luminometer (BMG Labtechnologies LUMIstar) following the manufacturer's instructions. Arbitrary Luciferase activity units were normalized to the amount of protein in each assay point.
To investigate the effect of MSF-A binding on HIF-1α function, the transcriptional activity of the HIF-1 complex was determined using a reporter gene assay as previously described (Mabjeesh N J et al. 2ME2 inhibits tumor growth and angiogenesis by disrupting microtubules and dysregulating HIF. Cancer Cell 2003; 3: 363-375). […]

PC-3 cells = experiment: Soft agar foci assay; assay type: cell-based; conditions: PC-3-MSF-A vs PC-3-Neo cells, 4 weeks, normoxia
Method: FIGS. 14a-g are microscopic photographs (FIGS. 14a-f) and a graph depicting the effect of MSF-A over-expression on colony formation and growth (FIG. 14g). PC-3-Neo and PC-3-MSF-A cells were grown for 4 weeks in soft agar under normoxic conditions. Colonies were observed and counted. FIGS. 14a, c, and e—representative colonies from each plate seeded with PC-3-Neo cells; FIGS. 14b, d, and f—representative colonies from each plate seeded with PC-3-MSF-A cells; FIG. 14g—quantitative analysis of colony number from each cell type. Columns=means; bars=SD; n=3.
Soft Agar Foci assay—The assay tests the anchorage-independent growth of the cell in soft agar. Suspensions of PC-3-Neo or PC-3-MSF-A cells in 0.22% soft agar were poured on 35 mm-diameter plate (5000 cells/plate) pre-cast with 0.5% soft agar and were cultured for 4 weeks. Colonies (≧20 cells) were counted.

T1 sequence (Q16665 whole entry): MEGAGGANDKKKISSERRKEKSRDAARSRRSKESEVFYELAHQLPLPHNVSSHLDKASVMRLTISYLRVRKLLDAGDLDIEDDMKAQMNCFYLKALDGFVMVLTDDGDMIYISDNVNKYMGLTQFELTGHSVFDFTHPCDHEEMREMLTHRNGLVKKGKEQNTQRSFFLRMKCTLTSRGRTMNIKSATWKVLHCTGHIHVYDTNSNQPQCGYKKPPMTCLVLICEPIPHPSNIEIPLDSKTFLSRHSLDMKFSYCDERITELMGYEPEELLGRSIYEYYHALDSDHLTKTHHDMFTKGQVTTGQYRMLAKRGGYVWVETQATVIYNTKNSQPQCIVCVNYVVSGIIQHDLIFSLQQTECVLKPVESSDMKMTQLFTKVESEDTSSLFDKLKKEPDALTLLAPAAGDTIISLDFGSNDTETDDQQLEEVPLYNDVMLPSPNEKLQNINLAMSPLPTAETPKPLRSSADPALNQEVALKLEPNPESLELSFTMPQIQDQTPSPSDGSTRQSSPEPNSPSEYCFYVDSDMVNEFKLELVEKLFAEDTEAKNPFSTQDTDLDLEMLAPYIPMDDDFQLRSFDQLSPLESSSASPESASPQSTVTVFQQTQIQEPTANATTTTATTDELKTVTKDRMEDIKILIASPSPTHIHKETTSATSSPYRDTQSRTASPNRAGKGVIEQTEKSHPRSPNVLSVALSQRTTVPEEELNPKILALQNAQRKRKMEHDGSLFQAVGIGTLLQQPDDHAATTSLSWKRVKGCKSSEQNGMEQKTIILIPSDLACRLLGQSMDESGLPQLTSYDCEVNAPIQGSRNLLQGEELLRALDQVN

B1: MSF-A: myeloid/lymphoid leukemia septin-like fusion protein A (SEQ ID NO:3), over-expressed from the p3xFlag-MSF-A vector (protein, listed as Homo sapiens)
chain: MKKSYSGGTRTSSGRLRRLGDSSGPALKRSFEVEEVETPNSTPPRRVQTPLLRATVASSTQKFQDLGVKNSEPSARHVDSLSQRSPKASLRRVELSGPKAAEPVSRRTELSIDISSKQVENAGAIGPSRFGLKRAEVLGHKTPEPAPRRTEITIVKPQESAHRRMEPPASKVPEVPTAPATDAAPKRVEIQMPKPAEAPTAPSPAQTLENSEPAPVSQLQSRLEPKPQPPVAEATPRSQEATEAAPSCVGDMADTPRDAGLKQAPASRNEKAPVDFGYVGIDSILEQMRRKAMKQGFEFNIMVVGQSGLGKSTLINTLFKSKISRKSVQPTSEERIPKTIEIKSITHDIEEKGVRMKLTVIDTPGFGDHINNENCWQPIMKFINDQYEKYLQEEVNINRKKRIPDTRVHCCLYFIPATGHSLRPLDIEFMKRLSKVVNIVPVIAKADTLTLEERVHFKQRITADLLSNGIDVYPQKEFDEDSEDRLVNEKFREMIPFAVVGSDHEYQVNGKRILGRKTKWGTIEVENTTHCEFAYLRDLLIRTHMQNIKDITSSIHFEAYRVKRLNEGSSAMANGVEEKEPEAPEM
modifications: 3xFlag tag
- association with HIF-1α protein (co-immunoprecipitation) (HIF-1α protein): strong association
- HIF-1 transcriptional activity (luciferase assay), stable transfectants [1]: significant increase
- colony formation in soft agar (PC-3 cells): significantly more colonies
